Measurements taken from the DeepSol protein solubility set.

Assay: soluble on expression in E. coli; label from the status in PepcDB or PDB records

Sequence | soluble on expression in E. coli
MSLTIIKQVELHEFDFKAKNLGNLTGAESVGAFGYLKGSFSKIKKFAVVIITDDGVRGEYVTHWCASDATYAQSSILAPKLLGRNAEEREGIYDDFKRELRQFDHMGHGPIDIALWDWAGKKLDCSVNFLLGGFKKKLPAYASTYHGDRNGGLDSKEAFSDFAEYCYDLGYKAFKIHGWNDGNAKEEAENVLHVAKKVGHKMTLMLDPACELRTFADALYVGKACDEADYFWLEDPYRDSGVSAFAHKKLRNMIKTPILQTEHIRGLEPKADFLIAGGTDFLRMDPEYDMGITGGMKIAHLAESFGVDVEIHACGPAHRHMMSAIRNTNFYEVALLGPDCPNAIPPVYLCGYSDMIDCIDKNGFVEVPNGVGLGVKYDWEFISKNTTNKKIFSLEGHHHHHH | soluble
MSLTIITMIRFYGFSVMLENEQLKIEYGLFNKKKVTVPTKRLQAVVERQSYIRRLFGYTAIHFIITSDFENKKIEDDDNDSGSVPILPFIKRDKAYQIIQNLVPDLSYQQVNEGMPLSGFHEGHHHHHH | not soluble
MSLTIKNSLGQSHDYIKMFVKEGDTVVDATCGNGNDTAFLASLVGENGRVFGFDIQDKAIANTTKKLTDLNLIDRVTLIKDGHQNMDKYIDCPVKAVMFNLGYLPSGDHSISTRPETTIQALSKAMELLVTGGIITVVIYYGGDTGFEEKEKVLEFLKGVDQKKFIVQRTDFINQANCPPILVCIEKISEGHHHHHH | soluble
MSLTIMPDIARMKRELAEIIAIRSENPPGGEADVAVYVERLLKDEGFSVSLTEYKPGRFNVEARIENGPGPVFAFNTHMDTVPAGDGWTTDAFILREDDGKLFGRGACDCKGPLIAMIEAMRMLAADRTAWSGTLLGVFVGDEEIASEGAKYYAAARPKIDFAVVGEPTSNTTYSAHKGSLRPVVRVHGVTAHSGTPHLGDNAIYRAGQLLTLVEAFHNNVVRKRTHPLVGEASLTVTRISGGHADNVLPGSCDLLLDRRMVPGESEDAVKQEFATLLKDAYDRFGVKAEIVDYKATTGSATETAADQSIVAASLEACRASGTSDPGPFGFQGGCDLVHFRSLGAQGTVIGPGSLSVAHKADEFVPLDEFVTCSVIYRDVARKMLRPNEGHHHHHH | soluble
MSLTIQMKNTGKRIDLIANRKPQSQRVLYELRDRLKRNQFILNDTNPDIVISIGGDGMLLSAFHKYENQLDKVRFIGLHTGHLGFYTDYRDFELDKLVTNLQLDTGARVSYPVLNVKVFLENGEVKIFRALNEASIRRSDRTMVADIVINGVPFERFRGDGLTVSTPTGSTAYNKSLGGAVLHPTIEALQLTEIASLNNRVYRTLGSSIIVPKKDKIELIPTRNDYHTISVDNSVYSFRNIERIEYQIDHHKIHFVATPSHTSFWNRVKDAFIGEVDEEGHHHHHH | soluble
MSLTKPIIGITANVRPNPAHEDIKWSYAPSGFVEGVQKAGGLAILLPVSDPLEAKTYISMIDKLILIGGQNIDPKFYNEENHACEDDFFLERDLFEMALIEEATKQKKPIFSICRGTQLMNVALGGSLHQDIKRHWQDKPSDYLYHEIIIDKNSKLAEIYGLETSINSFHHQSIKHLASDLRVIARDPEDNTVEAIESNTPDLRYLGVQWHPELLLNKREEDLKLFEYVVDELEGHHHHHH | soluble
MSLTLPELFTSVFSHFKGQPDKAPIARKINGAYSPISYDSLAEDCRHFAAYLKERGIEPGDRVAILSENRPGWYLADIAILSLGATDVPLYPSLPPNQIEYILNNCSAKGIIVSNMLQLGKILSIWPKLPELNMVIVMNKLDEPVEDVIDLSQAKTEGKKVLEAKPWLLDGIKSNPDDVATLIYTSGTTGLPKGVMLTHRNICENVKSCSTVIRIDQTDSSLSFLPLSHAYERTGGYYLMFACGARINLAESVETISLNISEAKPTIIFTVPRLFDRMKASILKSVTSEGGVKEKIFFWAVSTGEKYHKQLATGKVSPLLAVQHNLADKLVYSKIRKKFGGKLRYFVSGGAALPQKTGEFFQSIGITILEGFGLTETSPVTNVNRPEKVKFGTVGLPVKNVEVKIAPDGEIMLKGPNIMKGYWKDEAASAEVLRDGWLYTGDIGEVDSEGYLKITDRKKHIIVTSGGKNIAPLQIENLILDSPYVDQAMIVGEKRPFLIALIVPDFLKLRDFAAEHQIKASSTKELINTKEVIEVYEKLLKSISRQLATHEKVRKFLLLEEPFSIENGMMTPTLKLKRKEITTKFSAEIDNLYNTLNMVYNTEGHHHHHH | not soluble
MSLTLSDKDFEVLRDFIYNHCGIYFHTSKKYFLESRITRRIEATSSPNLMTYMGLLKSGPGKSDELLKLLTEITTNETCFFRNPPQLKALENVFLPEIVAAKGKIGFRKLRIWSAGSSSGEEAYTMAMLLLEKRATILKDWIIEIVGTDISETVLAQAREGVYNAYSVRNTPDYYKKKYFRQEPGERYVLSPDVKKLVSFNHLNLYEDAKMVFMKSFDFIFCANVLIYFDLASKTKVVQHYYNNLQPYGYFFVGQSESLHGVNDKFKTVHFPGGFAYKKEGHHHHHH | soluble
MSLTLTLTGTGGAQGVPAWGCECAACARARRSPQYRRQPCSGVVKFNDAITLIDAGLHDLADRWSPGSFQQFLLTHYHMDHVQGLFPLRWGVGDPIPVYGPPDEQGCDDLFKHPGLLDFSHTVEPFVVFDLQGLQVTPLPLNHSKLTFGYLLETAHSRVAWLSDTAGLPEKTLKFLRNNQPQVMVMDCSHPPRADAPRNHCDLNTVLALNQVIRSPRVILTHISHQFDAWLMENALPSGFEVGFDGMEIGVALEHHHHHH | soluble
MSLTPKKISSISLEVTGSIVSIGLAVYKDIFEYINLVTHKFIYFQDLERKNIELQLEIARLQHLQSEVESVKAENIALKDLLMIAEEEEFEYLTTKLLSVSFNPFSRTALISAGKKQGIEPDQIVVNSGKLVGKIIEVSNNYSKVMLISDVNSRIPIKANSSREQGILAGNNNNSKILYLPNNHLVQKDEEIVTSGHGNIYPAGILVGYVSRVTENDVIVNLAADLSKMEFVQILLPKQEGHHHHHH | soluble
MSLTQDYELVVKGVRNFENKVAVTVALRDKKRFDGEIFDLDISLDRVEGAALEFYEAAARMRIRQVFLDVAAGLCVGDEQSPEKRPIILEAQNVWITYKGKLPGRITGSLKTPPTALRSEGHHHHHH | not soluble
MSLTQKRLGLIMNGITGRMGLNQHLIRSVVAIRAQGGVPLSDGTKVQLDPILIGRNADKVEGLAKQYGIERWGTDLDAALADPGNEIFFDAATTQMRPILLEKAIRAGKHVYCEKPIATNLPEAVRICRLAEEKGVKNGVVQDKLFLPGLQKLKLLRDSGFFGRMISVRGEFGYWVFEGDWGQPAQRPSWNYRSQEGGGMILDMVCHWRYVLDNLFGEVKSVSCLGATHIPSRVDERGQPYEATADDAAYATFELQDGVIAHINMSWCTRVYRDDLVTFQVDGTLGSAVAGLSDCVFQSRVGTPRPVWNPDQKQTMDFYNHWQPVPDTAVFDNGFKVQWEMFIRHVVEDAPYRFTLREGAKGVQLVECALQSWKERRWIDVPTLEASERAVLQAAEEGHHHHHH | soluble
MSLTQTAFRSQLLTFNGDPAQSSQAAIYETDGLLIVDDGKVVAAGPYAQLAATLARDAIVHELRDKLIVPGFIDTHIHYPQTDMIASPAPGLLPWLDKYTFPTERQFGDPEHAREVADFFVDELLACGTTSALVYCTVHKQSADALFAASDARDLRMIAGKVLMDRNCPEFLRDTAQSGYDDSAELIDRWHGKGRQMYALTPRFAPTSTEAQLEACGELARRHPDVFVQSHVAENVDEVKWVGELFPGHRSYLDIYDRYGLLRPRAVYGHCIHLDDEDRRRMAETRTVVAHCPTSNFFLGSGLFDFDKAGEYDVPVTLATDVGGGTSFSMLQTMNEAHKVARLSGHHLTATRMFWLATAGAAQALDLADTVGTLAPRTEADFVVLDPQATPLLARRTKRADSLEELLFAFALLGDDRAVYRTYAAGQLVHERGAAPRPAAEGHHHHHH | soluble
MSLTRDEIAKYYEAHKGQFVSGRKVRLGLVIFPPRDDADALAAQVKSGAMTFADLAARHSIGPNPQNGGVIGDLLWSDLSMEWRDTLSELKPGDVSRVFLVEGRKAVLQLVASNEGKGQALDDVAEEIENILREPKMQERLQEYIGQLRSRAVIDIREGHHHHHH | soluble
MSLTREVGQRREAEETAHKLAHTDPLTGCLNRRSMGPAVEQMVSTARTSGHEVVVMMMDLDNFKRSNDVHGHQAGDAVLLHTADRIRAILPAGSIIARLGGDEFACAAIFDPDHVESIDRLILRMNEAVAMPVRVDGLMLEVTASIGLAATSAADAGAPPALADTLLHRADLAMYQAKKAGRNRYCWFEQNMESELRFRSELEREIREGVARGEFVPYYEKQIDLETGELTGFEMLARWRSPRHGLLSPEIFIPIAEEIGLISELSENLIRQALRDARDWDPTLTLSVNISPIQLRDPWFAQKLLKLLVEANFPPHRLDIEITETCLHENVGVVRTLITSLKNQGIRISLDDFGTGYSSLAQLRTLPFDQIKIDRFFVSNLGKNKDSATIVEAISSLGKGMDLPITAEGIESPEVLDELRKFGKFKGQGFLYGQPGDASEIRAMLADRQLLQQQAEGHHHHHH | soluble
MSLTTVGIRGTFFDFVDDPWKHIGNEQAAARFHQDGLMVVTDGVIKAFGPYEKIAAAHPGVEITHIKDRIIVPGFIDGHIHLPQTRVLGAYGEQLLPWLQKSIYPEEIKYKDRNYAREGVKRFLDALLAAGTTTCQAFTSSSPVATEELFEEASRRNMRVIAGLTGIDRNAPAEFIDTPENFYRDSKRLIAQYHDKGRNLYAITPRFAFGASPELLKACQRLKHEHPDCWVNTHISENPAECSGVLVEHPDCQDYLGVYEKFDLVGPKFSGGHGVYLSNNEFRRMSKKGAAVVFCPCSNLFLGSGLFRLGRATDPEHRVKMSFGTDVGGGNRFSMISVLDDAYKVGMCNNTLLDGSIDPSRKDLAEAERNKLSPYRGFWSVTLGGAEGLYIDDKLGNFEPGKEADFVALDPNGGQLAQPWHQSLIADGAGPRTVDEAASMLFAVMMVGDDRCVDETWVMGKRLYKKSEGHHHHHH | soluble
MSLTVPQSITELDLKNLTNRTFHPSPVAWEDQVLYFLLLDRFSDGKETGYRDNRGRRVAKGETPLYQPGDAGNAIRTEPEAAVWRESGSRWCGGTLKGLASKMGYLKRMGVTAVWVSPLFKQCSFVPTYHGYGIQNFLEVDPHFGTADDLRELVHVAHANGIYVILDIILNHAGNIFAYDRGYTPYDGSTVYPVTGFRSADGTPNLPFGPIDTKANPDAWPDGAVWPRELQAANAYTRMGHIRDWDSYHEYLDGDFFDLKDIHLGEGEVDAFRPSPALLALCEVYKYWIALSDVDGYRIDTVKHMGAGATRFFASVIHEFAQAIGKENFYLIGEITGGRDNAFNTLATTGLNAALGVDDIPLRLEDLVKGRANPADYFNLFRNSLLVRKESHVWFRDKVVTVIDDHDQVCRGAKKERFCAGDPKWRRLVLNALALNTTTLGIPCVYYGTEQAFDGEGGDDRYLRECMFGGPFGAFRTRGVQFFDEENPVYREFAKILALRREKLPLRRGRQYLREISGDGVTFGLPYVIGGEIRSVVPWSRIFDTEEMVLAINTDADSPRTAWVLVDGSLHREGDRFAYRYSTDPGQVRGTTAVQRINDAVQAIQVTVPAAGFVMLEQREGHHHHHH | soluble
MSLTVSARRADAQRNRELILDAAREQLREPGELKMNAVAKACGIGQGTLYRHFPTREDLLVEVYRHDVEELVAAASDMVSTRSPVEALAGWFERVAAYARVKNHVFAAVEAATWRDLAAHSLGPIGEAVELLLAAGRAEGSMRADVEARDVIVLIGWLSRLDDTELDERGPRLLSVLLDGLRTPQGEGHHHHHH | soluble
MSLTYPYRTTMALNTYQYRETTMIDPKKIEQIARQVHESMPKGIREFGEDVEKKIRQTLQAQLTRLDLVSREEFDVQTQVLLRTREKLALLEQRISELENRSTEIKKQPDPETLPPTLEGGSHHHHHH | soluble
